Consider nine substances from PMC10015101.

Holding throughout (experiment): SEC
Assay [1] deals with BM48-31 soluble spike ectodomain, stabilised (2P, GSAS linker, T4 fibritin trimerization motif) (bat sarbecovirus BM48-31 | bacteriophage T4).
In assay [2] the target is BtKY72 soluble spike ectodomain, stabilised (2P, GSAS linker, T4 fibritin trimerization motif) (bat sarbecovirus BtKY72 | bacteriophage T4).
The target of assay [3] is Pang17 soluble spike ectodomain, stabilised (2P, GSAS linker, T4 fibritin trimerization motif) (pangolin sarbecovirus pang17 | bacteriophage T4).
For assay [4], the target named is RaTG13 soluble spike ectodomain, stabilised (2P, GSAS linker, T4 fibritin trimerization motif) (bat sarbecovirus RaTG13 | bacteriophage T4).
The target in assay [5] is RmYN02 soluble spike ectodomain, stabilised (2P, GSAS linker, T4 fibritin trimerization motif) (bat sarbecovirus RmYN02 | bacteriophage T4).
For assay [6], the target named is Rs4081 soluble spike ectodomain, stabilised (2P, GSAS linker, T4 fibritin trimerization motif) (bat sarbecovirus RS4081 | bacteriophage T4).
Assay [7] addresses RsSHC014 soluble spike ectodomain, stabilised (2P, GSAS linker, T4 fibritin trimerization motif) (bat sarbecovirus RsSHC014 | bacteriophage T4) (UniProt U5WLK5).
Assay [8] deals with WIV1 soluble spike ectodomain, stabilised (2P, GSAS linker, T4 fibritin trimerization motif) (bat sarbecovirus WIV1 | bacteriophage T4) (UniProt U5WI05).
In assay [9] the target is Yun11 soluble spike ectodomain, stabilised (2P, GSAS linker, T4 fibritin trimerization motif) (sarbecovirus Yun11 | bacteriophage T4).

As usually defined, the stoichiometry N is the number of molecules, sites or subunits per partner or assembly.

For “BM48-31 soluble spike ectodomain, stabilised (2P, GSAS linker, T4 fibritin trimerization motif) (domain or fragment)”, the stoichiometry N in assay [1] was 3. As to “BtKY72 soluble spike ectodomain, stabilised (2P, GSAS linker, T4 fibritin trimerization motif) (domain or fragment)”, the stoichiometry N in assay [2] worked out at 3. Consider “Pang17 soluble spike ectodomain, stabilised (2P, GSAS linker, T4 fibritin trimerization motif) (domain or fragment)”, for which the stoichiometry N in [3] came out at 3. Turning to “RaTG13 soluble spike ectodomain, stabilised (2P, GSAS linker, T4 fibritin trimerization motif) (domain or fragment)”, the stoichiometry N in assay [4] is 3.

With “RmYN02 soluble spike ectodomain, stabilised (2P, GSAS linker, T4 fibritin trimerization motif) (domain or fragment)”, the stoichiometry N in [5] amounted to 3. Regarding “Rs4081 soluble spike ectodomain, stabilised (2P, GSAS linker, T4 fibritin trimerization motif) (domain or fragment)”, the stoichiometry N in assay [6] was found to be 3. In turn, “RsSHC014 soluble spike ectodomain, stabilised (2P, GSAS linker, T4 fibritin trimerization motif) (from UniProt U5WLK5 1-1191) (domain or fragment)” gave a stoichiometry N in assay [7] of 3.

For “WIV1 soluble spike ectodomain, stabilised (2P, GSAS linker, T4 fibritin trimerization motif) (from UniProt U5WI05 1-1191) (domain or fragment)”, the stoichiometry N in [8] is 3. Regarding “Yun11 soluble spike ectodomain, stabilised (2P, GSAS linker, T4 fibritin trimerization motif) (domain or fragment)”, in [9], the stoichiometry N was 3.
